Data from US20260001928A1 (CORTERIA PHARMACEUTICALS, priority 2022, published 2026).
*1 amine or outer side, *2 acyl side, *3 side chain or, on linkers, in order; H or OH if unused. Where no end group is shown, it is not given here. Side-chain parts run from the residue outwards. [ ]: non-standard residue; d: D form. The star is where a group is joined. C18 diacid = O=C(O)CCCCCCCCCCCCCCCCC(=O)*; C16 diacid = O=C(O)CCCCCCCCCCCCCCC(=O)*; γGlu = O=C(O)[C@H](CCC(=O)[*:2])N[*:1]; NMeI = CC[C@H](C)[C@H](NC)C(=O)O; Pentanoyl = CCCCC(=O)*; AEEA = NCCOCCOCC(=O)O; Aib = CC(C)(N)C(=O)O

T1: CRF1R receptor (UniProt P34998 24-415, limits assumed)
T1 sequence (looked up): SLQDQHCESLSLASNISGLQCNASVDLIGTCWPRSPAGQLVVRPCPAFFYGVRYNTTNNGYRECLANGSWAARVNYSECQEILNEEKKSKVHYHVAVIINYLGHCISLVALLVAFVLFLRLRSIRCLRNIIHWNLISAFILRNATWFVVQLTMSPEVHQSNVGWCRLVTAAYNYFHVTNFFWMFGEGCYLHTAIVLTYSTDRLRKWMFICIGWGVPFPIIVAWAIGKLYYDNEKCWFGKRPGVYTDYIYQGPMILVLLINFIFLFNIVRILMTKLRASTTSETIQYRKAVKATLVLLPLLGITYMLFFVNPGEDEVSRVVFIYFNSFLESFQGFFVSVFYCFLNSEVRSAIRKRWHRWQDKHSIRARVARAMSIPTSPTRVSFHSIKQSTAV


Legend:
[1] = target: human corticotropin-releasing factor 2a (CRF2a receptor) (human), Q13324; experiment: cell-based or functional assay
human corticotropin-releasing factor 2a (CRF2a receptor) (human), Q13324, sequence (Q13324 20-411): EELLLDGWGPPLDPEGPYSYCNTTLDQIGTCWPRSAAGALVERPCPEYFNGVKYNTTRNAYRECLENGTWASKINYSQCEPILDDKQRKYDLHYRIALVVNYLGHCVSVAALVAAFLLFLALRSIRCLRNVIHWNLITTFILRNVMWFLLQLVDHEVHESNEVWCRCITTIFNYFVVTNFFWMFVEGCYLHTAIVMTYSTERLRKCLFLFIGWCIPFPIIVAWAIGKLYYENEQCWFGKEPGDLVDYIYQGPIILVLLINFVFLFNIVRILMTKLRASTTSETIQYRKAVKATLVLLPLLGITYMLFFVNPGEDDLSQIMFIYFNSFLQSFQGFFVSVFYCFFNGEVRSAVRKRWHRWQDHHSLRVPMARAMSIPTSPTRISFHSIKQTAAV

CRF1R receptor = target: T1, CRF1R receptor; experiment: cell-based or functional assay

| EC50 [nM] (cAMP) [1] | EC50 (CRF1R receptor) [nM] | Emax (% I) (CRF1R receptor) [%] | Binder |
| --- | --- | --- | --- |
| 0.29 | > 250 | 15 | Ac-IVLSLD[dV]PIKLK([AEEA-AEEA-γGlu-γGlu-C18 diacid])QILLKQERQKKQREQAEKN[Aib]QILEQV-NH2 (SMILES CC[C@H](C)[C@H](NC(C)=O)C(=O)N[C@H](C(=O)N[C@@H](CC(C)C)C(=O)N[C@@H](CO)C(=O)N[C@@H](CC(C)C)C(=O)N[C@@H](CC(=O)O)C(=O)N[C@@H](C(=O)N1CCC[C@H]1C(=O)N[C@H](C(=O)N[C@@H](CCCCN)C(=O)N[C@@H](CC(C)C)C(=O)N[C@@H](CCCCNC(=O)COCCOCCNC(=O)COCCOCCNC(=O)CC[C@H](NC(=O)CC[C@H](NC(=O)CCCCCCCCCCCCCCCCC(=O)O)C(=O)O)C(=O)O)C(=O)N[C@@H](CCC(N)=O)C(=O)N[C@H](C(=O)N[C@@H](CC(C)C)C(=O)N[C@@H](CC(C)C)C(=O)N[C@@H](CCCCN)C(=O)N[C@@H](CCC(N)=O)C(=O)N[C@@H](CCC(=O)O)C(=O)N[C@@H](CCCNC(=N)N)C(=O)N[C@@H](CCC(N)=O)C(=O)N[C@@H](CCCCN)C(=O)N[C@@H](CCCCN)C(=O)N[C@@H](CCC(N)=O)C(=O)N[C@@H](CCCNC(=N)N)C(=O)N[C@@H](CCC(=O)O)C(=O)N[C@@H](CCC(N)=O)C(=O)N[C@@H](C)C(=O)N[C@@H](CCC(=O)O)C(=O)N[C@@H](CCCCN)C(=O)N[C@@H](CC(N)=O)C(=O)NC(C)(C)C(=O)N[C@@H](CCC(N)=O)C(=O)N[C@H](C(=O)N[C@@H](CC(C)C)C(=O)N[C@@H](CCC(=O)O)C(=O)N[C@@H](CCC(N)=O)C(=O)N[C@H](C(N)=O)C(C)C)[C@@H](C)CC)[C@@H](C)CC)[C@@H](C)CC)C(C)C)C(C)C) [SEQ ID NO 30] |
| 3.08 |  | 1 | Ac-IVLSLD[dV]PIKLK([AEEA-AEEA-γGlu-C16 diacid])KILLEQEKQKKQREQAETN[Aib]QILAQV-NH2 (SMILES CC[C@H](C)[C@H](NC(C)=O)C(=O)N[C@H](C(=O)N[C@@H](CC(C)C)C(=O)N[C@@H](CO)C(=O)N[C@@H](CC(C)C)C(=O)N[C@@H](CC(=O)O)C(=O)N[C@@H](C(=O)N1CCC[C@H]1C(=O)N[C@H](C(=O)N[C@@H](CCCCN)C(=O)N[C@@H](CC(C)C)C(=O)N[C@@H](CCCCNC(=O)COCCOCCNC(=O)COCCOCCNC(=O)CC[C@H](NC(=O)CCCCCCCCCCCCCCC(=O)O)C(=O)O)C(=O)N[C@@H](CCCCN)C(=O)N[C@H](C(=O)N[C@@H](CC(C)C)C(=O)N[C@@H](CC(C)C)C(=O)N[C@@H](CCC(=O)O)C(=O)N[C@@H](CCC(N)=O)C(=O)N[C@@H](CCC(=O)O)C(=O)N[C@@H](CCCCN)C(=O)N[C@@H](CCC(N)=O)C(=O)N[C@@H](CCCCN)C(=O)N[C@@H](CCCCN)C(=O)N[C@@H](CCC(N)=O)C(=O)N[C@@H](CCCNC(=N)N)C(=O)N[C@@H](CCC(=O)O)C(=O)N[C@@H](CCC(N)=O)C(=O)N[C@@H](C)C(=O)N[C@@H](CCC(=O)O)C(=O)N[C@H](C(=O)N[C@@H](CC(N)=O)C(=O)NC(C)(C)C(=O)N[C@@H](CCC(N)=O)C(=O)N[C@H](C(=O)N[C@@H](CC(C)C)C(=O)N[C@@H](C)C(=O)N[C@@H](CCC(N)=O)C(=O)N[C@H](C(N)=O)C(C)C)[C@@H](C)CC)[C@@H](C)O)[C@@H](C)CC)[C@@H](C)CC)C(C)C)C(C)C) [SEQ ID NO 42] |
| 1.04 | > 250 | 5 | Pentanoyl-VLSLD[dV]PIKLK([AEEA-AEEA-γGlu-γGlu-C18 diacid])QILLKQERQKKQREQAEKN[Aib]QILEQV-NH2 (SMILES CCCCC(=O)N[C@H](C(=O)N[C@@H](CC(C)C)C(=O)N[C@@H](CO)C(=O)N[C@@H](CC(C)C)C(=O)N[C@@H](CC(=O)O)C(=O)N[C@@H](C(=O)N1CCC[C@H]1C(=O)N[C@H](C(=O)N[C@@H](CCCCN)C(=O)N[C@@H](CC(C)C)C(=O)N[C@@H](CCCCNC(=O)COCCOCCNC(=O)COCCOCCNC(=O)CC[C@H](NC(=O)CC[C@H](NC(=O)CCCCCCCCCCCCCCCCC(=O)O)C(=O)O)C(=O)O)C(=O)N[C@@H](CCC(N)=O)C(=O)N[C@H](C(=O)N[C@@H](CC(C)C)C(=O)N[C@@H](CC(C)C)C(=O)N[C@@H](CCCCN)C(=O)N[C@@H](CCC(N)=O)C(=O)N[C@@H](CCC(=O)O)C(=O)N[C@@H](CCCNC(=N)N)C(=O)N[C@@H](CCC(N)=O)C(=O)N[C@@H](CCCCN)C(=O)N[C@@H](CCCCN)C(=O)N[C@@H](CCC(N)=O)C(=O)N[C@@H](CCCNC(=N)N)C(=O)N[C@@H](CCC(=O)O)C(=O)N[C@@H](CCC(N)=O)C(=O)N[C@@H](C)C(=O)N[C@@H](CCC(=O)O)C(=O)N[C@@H](CCCCN)C(=O)N[C@@H](CC(N)=O)C(=O)NC(C)(C)C(=O)N[C@@H](CCC(N)=O)C(=O)N[C@H](C(=O)N[C@@H](CC(C)C)C(=O)N[C@@H](CCC(=O)O)C(=O)N[C@@H](CCC(N)=O)C(=O)N[C@H](C(N)=O)C(C)C)[C@@H](C)CC)[C@@H](C)CC)[C@@H](C)CC)C(C)C)C(C)C) [SEQ ID NO 32] |
| 0.23 | > 250 | 14 | [NMeI]VLSLD[dV]PIKLK([AEEA-AEEA-γGlu-γGlu-C18 diacid])QILLKQERQKKQREQAEKN[Aib]QILEQV-NH2 (N-terminus assumed; SMILES CC[C@H](C)[C@H](NC)C(=O)N[C@H](C(=O)N[C@@H](CC(C)C)C(=O)N[C@@H](CO)C(=O)N[C@@H](CC(C)C)C(=O)N[C@@H](CC(=O)O)C(=O)N[C@@H](C(=O)N1CCC[C@H]1C(=O)N[C@H](C(=O)N[C@@H](CCCCN)C(=O)N[C@@H](CC(C)C)C(=O)N[C@@H](CCCCNC(=O)COCCOCCNC(=O)COCCOCCNC(=O)CC[C@H](NC(=O)CC[C@H](NC(=O)CCCCCCCCCCCCCCCCC(=O)O)C(=O)O)C(=O)O)C(=O)N[C@@H](CCC(N)=O)C(=O)N[C@H](C(=O)N[C@@H](CC(C)C)C(=O)N[C@@H](CC(C)C)C(=O)N[C@@H](CCCCN)C(=O)N[C@@H](CCC(N)=O)C(=O)N[C@@H](CCC(=O)O)C(=O)N[C@@H](CCCNC(=N)N)C(=O)N[C@@H](CCC(N)=O)C(=O)N[C@@H](CCCCN)C(=O)N[C@@H](CCCCN)C(=O)N[C@@H](CCC(N)=O)C(=O)N[C@@H](CCCNC(=N)N)C(=O)N[C@@H](CCC(=O)O)C(=O)N[C@@H](CCC(N)=O)C(=O)N[C@@H](C)C(=O)N[C@@H](CCC(=O)O)C(=O)N[C@@H](CCCCN)C(=O)N[C@@H](CC(N)=O)C(=O)NC(C)(C)C(=O)N[C@@H](CCC(N)=O)C(=O)N[C@H](C(=O)N[C@@H](CC(C)C)C(=O)N[C@@H](CCC(=O)O)C(=O)N[C@@H](CCC(N)=O)C(=O)N[C@H](C(N)=O)C(C)C)[C@@H](C)CC)[C@@H](C)CC)[C@@H](C)CC)C(C)C)C(C)C) [SEQ ID NO 31] |
| 0.09 | 158 | 48 | [NMeI]VLSLD[dV]PIKLK([γGlu-C16 diacid])QILLKQERQKKQREQAEKNKQILEQV-NH2 (N-terminus assumed; SMILES CC[C@H](C)[C@H](NC)C(=O)N[C@H](C(=O)N[C@@H](CC(C)C)C(=O)N[C@@H](CO)C(=O)N[C@@H](CC(C)C)C(=O)N[C@@H](CC(=O)O)C(=O)N[C@@H](C(=O)N1CCC[C@H]1C(=O)N[C@H](C(=O)N[C@@H](CCCCN)C(=O)N[C@@H](CC(C)C)C(=O)N[C@@H](CCCCNC(=O)CC[C@H](NC(=O)CCCCCCCCCCCCCCC(=O)O)C(=O)O)C(=O)N[C@@H](CCC(N)=O)C(=O)N[C@H](C(=O)N[C@@H](CC(C)C)C(=O)N[C@@H](CC(C)C)C(=O)N[C@@H](CCCCN)C(=O)N[C@@H](CCC(N)=O)C(=O)N[C@@H](CCC(=O)O)C(=O)N[C@@H](CCCNC(=N)N)C(=O)N[C@@H](CCC(N)=O)C(=O)N[C@@H](CCCCN)C(=O)N[C@@H](CCCCN)C(=O)N[C@@H](CCC(N)=O)C(=O)N[C@@H](CCCNC(=N)N)C(=O)N[C@@H](CCC(=O)O)C(=O)N[C@@H](CCC(N)=O)C(=O)N[C@@H](C)C(=O)N[C@@H](CCC(=O)O)C(=O)N[C@@H](CCCCN)C(=O)N[C@@H](CC(N)=O)C(=O)N[C@@H](CCCCN)C(=O)N[C@@H](CCC(N)=O)C(=O)N[C@H](C(=O)N[C@@H](CC(C)C)C(=O)N[C@@H](CCC(=O)O)C(=O)N[C@@H](CCC(N)=O)C(=O)N[C@H](C(N)=O)C(C)C)[C@@H](C)CC)[C@@H](C)CC)[C@@H](C)CC)C(C)C)C(C)C) [SEQ ID NO 5] |
| 1.85 |  | 7 | Ac-IVLSLD[dV]PIKLK([γGlu-γGlu-C16 diacid])KILLEQEKQKKQREQAETN[Aib]QILAQV-NH2 (SMILES CC[C@H](C)[C@H](NC(C)=O)C(=O)N[C@H](C(=O)N[C@@H](CC(C)C)C(=O)N[C@@H](CO)C(=O)N[C@@H](CC(C)C)C(=O)N[C@@H](CC(=O)O)C(=O)N[C@@H](C(=O)N1CCC[C@H]1C(=O)N[C@H](C(=O)N[C@@H](CCCCN)C(=O)N[C@@H](CC(C)C)C(=O)N[C@@H](CCCCNC(=O)CC[C@H](NC(=O)CC[C@H](NC(=O)CCCCCCCCCCCCCCC(=O)O)C(=O)O)C(=O)O)C(=O)N[C@@H](CCCCN)C(=O)N[C@H](C(=O)N[C@@H](CC(C)C)C(=O)N[C@@H](CC(C)C)C(=O)N[C@@H](CCC(=O)O)C(=O)N[C@@H](CCC(N)=O)C(=O)N[C@@H](CCC(=O)O)C(=O)N[C@@H](CCCCN)C(=O)N[C@@H](CCC(N)=O)C(=O)N[C@@H](CCCCN)C(=O)N[C@@H](CCCCN)C(=O)N[C@@H](CCC(N)=O)C(=O)N[C@@H](CCCNC(=N)N)C(=O)N[C@@H](CCC(=O)O)C(=O)N[C@@H](CCC(N)=O)C(=O)N[C@@H](C)C(=O)N[C@@H](CCC(=O)O)C(=O)N[C@H](C(=O)N[C@@H](CC(N)=O)C(=O)NC(C)(C)C(=O)N[C@@H](CCC(N)=O)C(=O)N[C@H](C(=O)N[C@@H](CC(C)C)C(=O)N[C@@H](C)C(=O)N[C@@H](CCC(N)=O)C(=O)N[C@H](C(N)=O)C(C)C)[C@@H](C)CC)[C@@H](C)O)[C@@H](C)CC)[C@@H](C)CC)C(C)C)C(C)C) [SEQ ID NO 41] |
